Assay results: article PMC4366279 (PLoS ONE, 2015)

B1: T. brucei RNA Editing Ligase 1 (TbREL1), full length wild type [modified: [35S]-methionine labelled; [35S]-methionine labelled] [Trypanosoma brucei] / KREPA2 [modified: [35S]-methionine labelled; [35S]-methionine labelled] [Trypanosoma … (parent complex)
chain 1: YMPLPNDQSDFSPYIEIDLPSESRIQSLHKSGLAAQEWVACEKVHGTNFGIYLINQGDHEVVRFAKRSGIMDPNENFFGYHILIDEFTAQIRILNDLLKQKYGLSRVGRLVLNGELFGAKYKHPLVPKSEKWCTLPNGKKFPIAGVQIQREPFPQYSPELHFFAFDIKYSVSGAEEDFVLLGYDEFVEFSSKVPNLLYARALVRGTLDECLAFDVENFMTPLPALLGLGNYPLEGNLAEGVVIRHVRRGDPAVEKHNVSTIIKLRCSSFMELKHPGKQKELKETFIDTVRSGALRRVRGNVTVISDSMLPQVEAAANDLLLNNVSDGRLSNVLSKIGREPLLSGEVSQVDVVLMLAKDALKDFLKEVDSLVLNTTLAFRKLLITNVYFESKRLVEQKWKELMQEEAAAQSEAIPPLSPAAPTKGE
chain 2: MYRRFFRSAAVKHLGTTSAQCLMRATKYPCGAMCRNASSCHPQTLGYQQRFQSTTDKKFHCSVCKKPFRLEMAAKLHLQQAHGGDGSVEAGPGPGVEASSVNVVSTPVPSPISPVERTFVDEEERRPRRMRPTPKPLHQPDRDIPAAAMEEMLGVWDKIGLNRLEGNFVHSTMVMKVFAAPPDVSEIPLYEHVAPEGENPFDSLDHMTTGTVDATYVGHDAFAEVDLVDPFVAAPDQTLNPFRAGKVRNPFTRISPTQREVVKPLQPPQPKEEPLKAPVTPFGQLPMFGQTREPSASFAAAAVSVQAAANPNEVSSPFAAAVSSSPFVGQVASPFAPAQDVAGSPFEASPCAASSPFVTAGGQETSPFAAPSTPASFGQGSLFPPMGTGAPGFTAITETEQRQQELEHGCPTCGKKFSTFEGAAMHSKSKHGIVLESKKVKDRLNRKGVPDLPAYVPSPVDLSSTSPFGTRSAIGASWAETELIPHAQCVSNITIVGRVLDVSQASENVSHVTVFVEGERSGEEETLTLCCFGEVSQKIRGTLKRNATIFASGTLRLHPVYEASNNKYYVSPVVHVSMPTGTLAVIT

Variants of: B1
Assay: co-precipitation (pull-down) with His-tag isolation beads, [35S]-methionine labeled proteins; parent: 100; read off a plot

| Variant | percent of parent |
| --- | --- |
| chain 1 YMPLPNDQSDFSPYIEIDLPSESRIQSLHKSGLAAQEWVACEKVHGTNFGIYLINQGDHEVVRFAKRSGIMDPNENFFGYHILIDEFTAQIRILNDLLKQKYGLSRVGRLVLNGELFGAKYKHPLVPKSEKWCTLPNGKKFPIAGVQIQREPFPQYSPELHFFAFDIKYSVSGAEEDFVLLGYDEFVEFSSKVPNLLYARALVRGTLDECLAFDVENFMTPLPALLGLGNYPLEGNLAEGVVIRHVRRGDPAVEKHNVSTIIKLRCSSFMELKHPGKQKELKETFIDTVRSGALRRVRGNVTVISDSMLPQVEAAANDLLLNNVSDGRLSNVLSKIGREPLLSGEVSQVDVVLMLAKDALKDFLKAVDSLVLNTTLAFRKLLITNVYFESKRLVEQKWKELMQEEAAAQSEAIPPLSPAAPTKGE [chain 1 E366A] | ~72 % of WT |
| chain 1 YMPLPNDQSDFSPYIEIDLPSESRIQSLHKSGLAAQAWVACEKVHGTNFGIYLINQGDHEVVRFAKRSGIMDPNENFFGYHILIDEFTAQIRILNDLLKQKYGLSRVGRLVLNGELFGAKYKHPLVPKSEKWCTLPNGKKFPIAGVQIQREPFPQYSPELHFFAFDIKYSVSGAEEDFVLLGYDEFVEFSSKVPNLLYARALVRGTLDECLAFDVENFMTPLPALLGLGNYPLEGNLAEGVVIRHVRRGDPAVEKHNVSTIIKLRCSSFMELKHPGKQKELKETFIDTVRSGALRRVRGNVTVISDSMLPQVEAAANDLLLNNVSDGRLSNVLSKIGREPLLSGEVSQVDVVLMLAKDALKDFLKEVDSLVLNTTLAFRKLLITNVYFESKRLVEQKWKELMQEEAAAQSEAIPPLSPAAPTKGE [chain 1 E37A] | ~67 % of WT |
| chain 1 YMPLPNDQSDFSPYIEIDLPSESRIQSLHKSGLAAQEWVACEKVHGTNFGIYLINQGDHEVVRFAKRSGIMDPNENFFGYHILIDEFTAQIRILNDLLKQKYGLSRVGRLVLNGELFGAKYAHPLVPKSEKWCTLPNGKKFPIAGVQIQREPFPQYSPELHFFAFDIKYSVSGAEEDFVLLGYDEFVEFSSKVPNLLYARALVRGTLDECLAFDVENFMTPLPALLGLGNYPLEGNLAEGVVIRHVRRGDPAVEKHNVSTIIKLRCSSFMELKHPGKQKELKETFIDTVRSGALRRVRGNVTVISDSMLPQVEAAANDLLLNNVSDGRLSNVLSKIGREPLLSGEVSQVDVVLMLAKDALKDFLKEVDSLVLNTTLAFRKLLITNVYFESKRLVEQKWKELMQEEAAAQSEAIPPLSPAAPTKGE [chain 1 K122A] | ~100 % of WT |
| chain 1 YMPLPNDQSDFSPYIEIDLPSESRIQSLHKSGLAAQEWVACEKVHGTNFGIYLINQGDHEVVRFAKRSGIMDPNENFFGYHILIDEFTAQIRILNDLLKQKYGLSRVGRLVLNGELFGAKYKHPLVPKSEKWCTLPNGKKFPIAGVQIQREPFPQYSPELHFFAFDIKYSVSGAEEDFVLLGYDEFVEFSSKVPNLLYARALVRGTLDECLAFDVENFMTPLPALLGLGNYPLEGNLAEGVVIRHVRRGDPAVEKHNVSTIIKLRCSSFMELKHPGKQKELKETFIDTVRSGALRRVRGNVTVISDSMLPQVEAAANDLLLNNVSDGRLSNVLSKIGREPLLSGEVSQVDVVLMLAKDALKDFLKEVDSLVLNTTLAFRKLLITNVYFESKRLVEQKAKELMQEEAAAQSEAIPPLSPAAPTKGE [chain 1 W398A] | ~66 % of WT |
| chain 1 YMPLPNDQSDFSPYIEIDLPSESRIQSLHKSGLAAQEWVACEKVHGTNFGIYLINQGDHEVVRFAKRSGIMDPNANFFGYHILIDEFTAQIRILNDLLKQKYGLSRVGRLVLNGELFGAKYKHPLVPKSEKWCTLPNGKKFPIAGVQIQREPFPQYSPELHFFAFDIKYSVSGAEEDFVLLGYDEFVEFSSKVPNLLYARALVRGTLDECLAFDVENFMTPLPALLGLGNYPLEGNLAEGVVIRHVRRGDPAVEKHNVSTIIKLRCSSFMELKHPGKQKELKETFIDTVRSGALRRVRGNVTVISDSMLPQVEAAANDLLLNNVSDGRLSNVLSKIGREPLLSGEVSQVDVVLMLAKDALKDFLKEVDSLVLNTTLAFRKLLITNVYFESKRLVEQKWKELMQEEAAAQSEAIPPLSPAAPTKGE [chain 1 E75A] | ~74 % of WT |
| chain 1 YMPLPNDQSDFSPYIEIDLPSESRIQSLHKSGLAAQEWVACEKVHGTNFGIYLINQGDHEVVRFAKRSGIMDPNENFFGYHILIDEFTAQIRILNDLLKQKYGLSRVGRLVLNGELFGAKYKHPLVPKSEKWCTLPNGKKFPIAGVQIQREPFPQYSPELHFFAFDIKYSVSGAEEDFVLLGYDEFVEFSSKVPNLLYARALVRGTLDECLAFDVENFMAPLPALLGLGNYPLEGNLAEGVVIRHVRRGDPAVEKHNVSTIIKLRCSSFMELKHPGKQKELKETFIDTVRSGALRRVRGNVTVISDSMLPQVEAAANDLLLNNVSDGRLSNVLSKIGREPLLSGEVSQVDVVLMLAKDALKDFLKEVDSLVLNTTLAFRKLLITNVYFESKRLVEQKWKELMQEEAAAQSEAIPPLSPAAPTKGE [chain 1 T220A] | ~84 % of WT |
| chain 1 YMPLPNDQSDFSPYIEIDLPSESRIQSLHKSGLAAQEWVACEKVHGTNFGIYLINQGDHEVVRFAKRSGIMDPNENFFGYHILIDEFTAQIRILNDLLKQKYGLSRVGRLVLNGELFGAKYKHPLVPKSEKWCTLPNGKKFPIAGVQIQREPFPQYSPELHFFAFDIKYSVSGAEEDFVLLGYDEFVEFSSKVPNLLYARALVRGTLDECLAFDVENFMTPLPALLGLGNYPLEGNLAEGVVIRHVRRGDPAVEKHNVSTIIKLRCSSFMELKHPGKQKELKETFIDTVRSGALRRVRGNVTVISDSMLPQVEAAANDLLLNNVSDGRLSNVLSKIGREPLLSGEVSQVDVVLMLAKDALKDFLKEVDSLVLNTTLAFRALLITNVYFESKRLVEQKWKELMQEEAAAQSEAIPPLSPAAPTKGE [chain 1 K380A] | ~84 % of WT |
| chain 1 YMPLPNDQSDFSPYIEIDLPSESRIQSLHKSGLAAQEWVACEKVHGTNFGIYLINQGDHEVVRFAKRSGIMDPNENFFGYHILIDEFTAQIRILNDLLKQKYGLSRVGRLVLNGELFGAKYKHPLVPKSEKWCTLPNGKKFPIAGVQIQREPFPQYSPELHFFAFDIKYSVSGAEEDFVLLGYDEFVEFSSKVPNLLYARALVRGTLDECLAFDVENFMTPLPALLGLGNAPLEGNLAEGVVIRHVRRGDPAVEKHNVSTIIKLRCSSFMELKHPGKQKELKETFIDTVRSGALRRVRGNVTVISDSMLPQVEAAANDLLLNNVSDGRLSNVLSKIGREPLLSGEVSQVDVVLMLAKDALKDFLKEVDSLVLNTTLAFRKLLITNVYFESKRLVEQKWKELMQEEAAAQSEAIPPLSPAAPTKGE [chain 1 Y231A] | ~75 % of WT |
| chain 1 YMPLPNDQSDFSPYIEIDLPSESRIQSLHKSGLAAQEWVACEKVHGTNFGIYLINAGDHEVVRFAKRSGIMDPNENFFGYHILIDEFTAQIRILNDLLKQKYGLSRVGRLVLNGELFGAKYKHPLVPKSEKWCTLPNGKKFPIAGVQIQREPFPQYSPELHFFAFDIKYSVSGAEEDFVLLGYDEFVEFSSKVPNLLYARALVRGTLDECLAFDVENFMTPLPALLGLGNYPLEGNLAEGVVIRHVRRGDPAVEKHNVSTIIKLRCSSFMELKHPGKQKELKETFIDTVRSGALRRVRGNVTVISDSMLPQVEAAANDLLLNNVSDGRLSNVLSKIGREPLLSGEVSQVDVVLMLAKDALKDFLKEVDSLVLNTTLAFRKLLITNVYFESKRLVEQKWKELMQEEAAAQSEAIPPLSPAAPTKGE [chain 1 Q56A] | ~110 % of WT |
| chain 1 YMPLPNDQSDFSPYIEIDLPSESRIQSLHKSGLAAQEWVACEKVHGTNFGIYLINQGDHEVVRFAKRSGIMDPNENFFGYHILIDEFTAQIRILNDLLKQKYGLSRVGRLVLNGELFGAKYKHPLVPKSEKWCTLPNGKKFPIAGVQIQREPFPQYSPELHFFAFDIKYSVSGAEEDFVLLGYDEFVEFSSKVPNLLYARALVRGTLDECLAFDVENFMTPLPALLGLGNYPLEGNLAEGVVIRHVRRGDPAVEKHNVSTIIKLRCSSFMELKHPGKQKELKETFIDTVRSGALRRVRGNVTVISDSMLPQVEAAANDLLLNNVSDGRLSNVLSKIGREPLLSGEVSQVDVVLMLAKDALKDFLKEVDSLVLNTTLAFRKLLITNVYFESKRLVEQKWAELMQEEAAAQSEAIPPLSPAAPTKGE [chain 1 K399A] | ~60 % of WT |
| chain 1 YMPLPNDQSDFSPYIEIDLPSESRIQSLHKSGLAAQEWVACEKVHGTNFGIYLINQGDHEVVRFAKRSGIMDPNENFFGYHILIDEFTAQIRILNDLLKQKYGLSRVGRLVLNGELFGAKYKHPLVPKSEKWCTLPNGKKFPIAGVQIQREPFPQYSPELHFFAFDIKYSVSGAEEDFVLLGYDEFVEFSSKVPNLLYARALVRGTLDECLAFDVENFMTPLPALLGLGNYPLEGNLAEGVVIRHVRRGDPAVEKHNVSTIIKLRCSSFMELKHPGKQKELKETFIDTVRSGALRRVRGNVTVISDSMLPQVEAAANDLLLNNVSDGRLSNVLSAIGREPLLSGEVSQVDVVLMLAKDALKDFLKEVDSLVLNTTLAFRKLLITNVYFESKRLVEQKWKELMQEEAAAQSEAIPPLSPAAPTKGE [chain 1 K335A] | ~57 % of WT |
| chain 1 YMPLPNDQSDFSPYIEIDLPSESRIQSLHKSGLAAQEWVACEKVHGTNFGIYLINQGDHEVVRFAKRSGIMDPNENFFGYHILIDEFTAQIRILNDLLKQKYGLSRVGRLVLNGELFGAKYKHPLVPKSEKWCTLPNGKKFPIAGVQIQREPFPQYSPELHFFAFDIKYSVSGAEEDFVLLGYDEFVEFSSKVPNLLYARALVRGTLDECLAFDVENFMTPLPALLGLGNYPLEGNLAEGVVIRHVRRGDPAVEKHNVSTIIKLRCSSFMELKHPGKQKELKETFIDTVRSGALRRVRGNVTVISDSMLPQVEAAANDLLLNNVSDGRLSNVLSKIGREPLLSGEVSQVDVVLMLAKDALKDFLKEVDSLVLNTTLAFRKLLITNVYFESARLVEQKWKELMQEEAAAQSEAIPPLSPAAPTKGE [chain 1 K391A] | ~88 % of WT |
| chain 1 YMPLPNDQSDFSPYIEIDLPSESRIQSLHKSGLAAQEWVACEKVHGTNFGIYLINQGDHEVVRFAKRSGIMDPNENFFGYHILIDEFTAQIRILNDLLKQKYGLSRVGRLVLNGELFGAKYKHPLVPKSEKWCTLPNGKKFPIAGVQIQREPFPQYSPELHFFAFDIKYSVSGAEEDFVLLGYDEFVEFSSKVPNLLYARALVRGTLDECLAFDVENFMTPLPALLGLGNYPLEGNLAEGVVIRHVRRGDPAVEKHNVATIIKLRCSSFMELKHPGKQKELKETFIDTVRSGALRRVRGNVTVISDSMLPQVEAAANDLLLNNVSDGRLSNVLSKIGREPLLSGEVSQVDVVLMLAKDALKDFLKEVDSLVLNTTLAFRKLLITNVYFESKRLVEQKWKELMQEEAAAQSEAIPPLSPAAPTKGE [chain 1 S259A] | ~100 % of WT |
